The record followed here is US20240209029A1, “ADIPONECTIN GLYCOPEPTIDES AND COMPOSITIONS AND METHODS OF USE THEREOF” (The University of Hong Kong, priority 2021, published 2024).

The assay deals with MDA-MB-231 cells. The assay can be described thus: Cancer cell proliferative assay (anti-proliferative activity, manual cell counting). Type of assay: cell-based, human. On the procedure:
FIGS. 3A-3B are bar graphs showing the Emax (FIG. 3A) and EC50 (FIG. 3B) of adiponectin or peptides with no glycans (hAdn-WM), or mono-, di-, tri- and tetra-glycans. The glyACD and adiponectin elicit synergistic anti-proliferative activity in human MDA-MB-231 cells. After serum starvation for 24 hours, MDA-MB-231 cells were treated with different concentrations of hAdn-WM, glyACD, full-length human adiponectin, or their combinations. After incubation for another 24 hours, cells were harvested for manual counting. FIG. 3C is a graph showing the inhibition rate on MDA-MB-231 cells of the indicated peptides. MDA-MB-231 cells were treated with different concentrations of adiponectin in the absence or presence of low (2.5 μg/ml) or high (20 μg/ml) doses of hAdn-WM or hAdn-WM656877101. FIG. 3D is a heatmap showing the percentage inhibition on cell growth. MDA-MB-231 cells were treated with 0, 0.22, 0.33, 0.49, 0.74, 1.11, 1.67, 2.5 μg/ml adiponectin in combination with 0, 0.3125, 0.625, 1.25, 2.5, 5, 10, 20 μg/ml hAdn-WM or hAdn-WM656877101. The percentage inhibition on cell growth was calculated and indicated by different intensity of the blue color. Data are presented as mean±SEM (n=6). *, P<0.05 vs full-length human adiponectin; ♦, P<0.05 vs peptide with no glycans (hAdn-WM); ▴, P<0.05 vs peptide with tetra-glycans (hAdn-WM656877101).
MDA-MB-231 cells were cultured in DMEM supplemented with 10% FBS and 1% penicillin-streptomycin-fungisone at 37° C. and under 5% CO2 95% humidified air. After harvesting, cells were seeded at a density of 3000 cells per well in 96-well plates and then cultured for 24 hours. After fasting in DMEM with 0.5% FBS for 24 hours, cells were subsequently stimulated with 2.5% FBS in the presence of peptides, human adiponectin or other drugs. The viable cell numbers at 24 hours at different doses were manually counted by mixing with trypan blue dye for analysis. The maximum inhibition rate (Emax) and half maximal effective concentration (EC50) were used to evaluate the anti-tumor activity of peptides and adiponectin. […]

[1] abbreviates: 24 hours incubation, viable cells manually counted.

B1: hAdiponectin: full-length human adiponectin, circulating glycoprotein hormone of 244 amino acids (SEQ ID NO:1) (protein, listed as Homo sapiens)
chain: MLLLGAVLLLLALPGHDQETTTQGPGVLLPLPKGACTGWMAGIPGHPGHNGAPGRDGRDGTPGEKGEKGDPGLIGPKGDIGETGVPGAEGPRGFPGIQGRKGEPGEGAYVYRSAFSVGLETYVTIPNMPIRFTKIFYNQQNHYDGSTGKFHCNIPGLYYFAYHITVYMKDVKVSLFKKDKAMLFTYDQYQENNVDQASGSVLLHLEVGDQVWLQVYGEGERNGLYADNDNDSTFTGFLLYHDTN
In the case of B1, under setting [1], the “EC50” value stood at 0.33 ± 0.11 µg/mL and the “Emax (%) maximum inhibition rate” value turned out to be 69.3 ± 3.34%. Moreover, the “Emax of human adiponectin” value (adiponectin alone (absence of peptide), FIG. 3C) was determined as 66.7±4.29%.
